First the molecules themselves.
B1: proMcANR1 probe (dsDNA)
DNA 1: ATTCTGAGTACTGTAACCTAAGTTGAAGTTGAATAATTGACGTCGTC
DNA 2: GACGACGTCAATTATTCAACTTCAACTTAGGTTACAGTACTCAGAAT
B2: proMcLAR1 probe (dsDNA)
DNA 1: GGACAGAAATTATCCATACACCCTTTTCGTTAATGTTGCAAACTGAGT
DNA 2: ACTCAGTTTGCAACATTAACGAAAAGGGTGTATGGATAATTTCTGTCC
B3: proMcANS probe (dsDNA)
DNA 1: AGATCATTGCTCCAACTGGCTAAAATTAAGTGACCATTACTATAAT
DNA 2: ATTATAGTAATGGTCACTTAATTTTAGCCAGTTGGAGCAATGATCT
B4: proMcLAR2 probe (dsDNA)
DNA 1: AAGTATGGTATAAACACAGACTAAGCCTCATTATCATATCCATATCAT
DNA 2: ATGATATGGATATGATAATGAGGCTTAGTCTGTGTTTATACCATACTT
B5: proMcANR2 probe (dsDNA)
DNA 1: ATTGGGAGATATGTGCTCGTTTTAGAGTGCTTTTAAAATAACTGAAAAC
DNA 2: GTTTTCAGTTATTTTAAAAGCACTCTAAAACGAGCACATATCTCCCAAT
B6: proMcCHS probe (dsDNA)
DNA 1: GCAACTCCTCCCAACTGTGTGGATCAAGCCACATACCCCGACTATTACT
DNA 2: AGTAATAGTCGGGGTATGTGGCTTGATCCACACAGTTGGGAGGAGTTGC

The first series has as its target T1, McMYB12b (Malus crabapple, UniProt X2EZI4 1-374).
T1 sequence: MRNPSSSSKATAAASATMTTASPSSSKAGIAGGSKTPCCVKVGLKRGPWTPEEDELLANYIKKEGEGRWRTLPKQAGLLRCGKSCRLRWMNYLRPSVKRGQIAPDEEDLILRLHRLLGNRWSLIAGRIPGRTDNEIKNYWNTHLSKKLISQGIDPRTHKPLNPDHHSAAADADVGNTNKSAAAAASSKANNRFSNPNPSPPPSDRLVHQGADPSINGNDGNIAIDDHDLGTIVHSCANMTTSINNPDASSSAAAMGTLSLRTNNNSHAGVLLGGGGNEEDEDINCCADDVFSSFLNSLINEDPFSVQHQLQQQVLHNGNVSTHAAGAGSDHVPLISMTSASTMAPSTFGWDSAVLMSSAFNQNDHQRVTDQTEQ
Description: EMSA; LightShift Chemiluminescent EMSA Kit per manufacturer; 10 ug protein, 25 pmol biotin probe, 10- to 1000-fold competitor; buffer, salt, pH and temperature not stated. To be noted: protein: recombinant; label: biotin; blunt.
Regarding B1, the binding result was “binds”.

Consider B2, for which the binding result was “binds”.

For B3, the binding result is “binds”.

In the case of B4, the binding result is recorded as “binds”.

Regarding B5, the binding result is given as “binds”.

In another series the target is T2, McMYB12a (Malus crabapple, UniProt X2EXK4 1-364).
T2 sequence: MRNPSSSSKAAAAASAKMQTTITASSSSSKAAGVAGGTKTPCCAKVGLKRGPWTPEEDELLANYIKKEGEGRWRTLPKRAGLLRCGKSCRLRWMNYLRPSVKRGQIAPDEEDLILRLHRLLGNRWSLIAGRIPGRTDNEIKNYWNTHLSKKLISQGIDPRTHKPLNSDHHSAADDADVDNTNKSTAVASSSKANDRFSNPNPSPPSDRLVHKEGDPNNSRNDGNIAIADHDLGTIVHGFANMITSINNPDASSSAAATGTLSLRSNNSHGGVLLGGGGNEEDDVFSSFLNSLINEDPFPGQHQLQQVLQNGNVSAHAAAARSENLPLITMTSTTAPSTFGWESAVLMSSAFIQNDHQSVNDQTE
Described as above. To be noted: protein: recombinant; label: biotin; blunt.
On to B1, for which the binding result is “binds”.

Turning to B2, the binding result is “no binding”.

With B3, the binding result is recorded as “binds”.

Regarding B6, the binding result is “binds”.

In the case of B4, the binding result was “binds”.

As for B5, the binding result is “binds”.

These data come from article PMC5334656, “McMYB12 Transcription Factors Co-regulate Proanthocyanidin and Anthocyanin Biosynthesis in Malus Crabapple”.
